Experimental findings from patent US20160195533 are described below.

The target in series [1] is Flag-tagged Snail1 (pCMV-Tag2B N-terminal Flag-tagged Snail1 expression vector, Addgene).
Series [2] deals with Strep-tagged Snail1 (pEXPR-IBA105-Snail1).
In series [3] the target is Snail1, endogenous protein of A549, HCC44, HEK293T or H1299 cells.
Chain of Snail1, endogenous protein of A549, HCC44, HEK293T or H1299 cells (chain, as listed by the source): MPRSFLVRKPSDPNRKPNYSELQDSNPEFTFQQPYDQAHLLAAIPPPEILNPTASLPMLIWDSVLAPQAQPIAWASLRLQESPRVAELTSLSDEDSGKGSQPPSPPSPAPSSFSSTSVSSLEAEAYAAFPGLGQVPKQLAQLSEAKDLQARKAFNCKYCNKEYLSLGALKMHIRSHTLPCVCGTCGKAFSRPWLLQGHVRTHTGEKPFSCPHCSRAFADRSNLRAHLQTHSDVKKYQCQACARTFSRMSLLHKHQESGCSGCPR

Chain of Flag-tagged Snail1 (pCMV-Tag2B N-terminal Flag-tagged Snail1 expression vector, Addgene) (chain, as listed by the source): as above
Chain of Strep-tagged Snail1 (pEXPR-IBA105-Snail1) (chain, as listed by the source): as above

B1: Strep-tagged ERS-WHEP domain of EPRS (pEXPR-IBA105-ERS) (protein)
chain: MATLSLTVNSGDPPLGALLAVEHVKDDVSISVEEGKENILHVSENVIFTDVNSILRYLARVATTAGLYGSNLMEHTEIDHWLEFSATKLSSCDSFTSTINELNHCLSLRTYLVGNSLSLADLCVWATLKGNAAWQEQLKQKKAPVHVKRWFGFLEAQQAFQSVGTKWDVSTTKARVAPEKKQDVGKFVELPGAEMGKVTVRFPPEASGYLHIGHAKAALLNQHYQVNFKGKLIMRFDDTNPEKEKEDFEKVILEDVAMLHIKPDQFTYTSDHFETIMKYAEKLIQEGKAYVDDTPAEQMKAEREQRIDSKHRKNPIEKNLQMWEEMKKGSQFGQSCCLRAKIDMSSNNGCMRDPTLYRCKIQPHPRTGNKYNVYPTYDFACPIVDSIEGVTHALRTTEYHDRDEQFYWIIEALGIRKPYIWEYSRLNLNNTVLSKRKLTWFVNEGLVDGWDDPRFPTVRGVLRRGMTVEGLKQFIAAQGSSRSVVNMEWDKIWAFNKKVIDPVAPRYVALLKKEVIPVNVPEAQEEMKEVAKHPKNPEVGLKPVWYSPKVFIEGADAETFSEGEMVTFINWGNLNITKIHKNADGKIISLDAKLNLENKDYKKTTKVTWLAETTHALPIPVICVTYEHLITKPVLGKDEDFKQYVNKNSKHEELMLGDPCLKDLKKGDIIQLQRRGFFICDQPYEPVSPYSCKEAPCVLIYIPDGHTKEMPTSGSKEKTKVEATKNETSAPFKERPTPSLNNNCTTSEDSLVLYNRVAVQGDVVRELKAKKAPKEDVDAAVKQLLSLKAEYKEKTGQEYKPGNPPAEIGQNISSNSSASILESKSLYDEVAAQGEVVRKLKAEKSPKAKINEAVECLLSLKAQYKEKTGKEYIPGQPPLSQSSDSSPTRNSEPAGLETPEAKVLFDKVASQGEVVRKLKTEKAPKDQVDIAVQELLQLKAQYKSLIGVEYKPVSATGAEDKDKKKKEKENKSEKQNKPQKQNDGQRKDPSKNQGGGLSSS
With B1, the “Snail1 stability, anti-Flag immunoblot (HEK293T)” value in series [1] is reported as “the WHEP-PRS fragment rather than ERS-WHEP fragment in the EPRS more contributed to the Snail1 stability”.

B2: 2× Strep-tagged EPRS (pEXPR-2×IBA105-EPRS) (protein)
chain: MATLSLTVNSGDPPLGALLAVEHVKDDVSISVEEGKENILHVSENVIFTDVNSILRYLARVATTAGLYGSNLMEHTEIDHWLEFSATKLSSCDSFTSTINELNHCLSLRTYLVGNSLSLADLCVWATLKGNAAWQEQLKQKKAPVHVKRWFGFLEAQQAFQSVGTKWDVSTTKARVAPEKKQDVGKFVELPGAEMGKVTVRFPPEASGYLHIGHAKAALLNQHYQVNFKGKLIMRFDDTNPEKEKEDFEKVILEDVAMLHIKPDQFTYTSDHFETIMKYAEKLIQEGKAYVDDTPAEQMKAEREQRIDSKHRKNPIEKNLQMWEEMKKGSQFGQSCCLRAKIDMSSNNGCMRDPTLYRCKIQPHPRTGNKYNVYPTYDFACPIVDSIEGVTHALRTTEYHDRDEQFYWIIEALGIRKPYIWEYSRLNLNNTVLSKRKLTWFVNEGLVDGWDDPRFPTVRGVLRRGMTVEGLKQFIAAQGSSRSVVNMEWDKIWAFNKKVIDPVAPRYVALLKKEVIPVNVPEAQEEMKEVAKHPKNPEVGLKPVWYSPKVFIEGADAETFSEGEMVTFINWGNLNITKIHKNADGKIISLDAKLNLENKDYKKTTKVTWLAETTHALPIPVICVTYEHLITKPVLGKDEDFKQYVNKNSKHEELMLGDPCLKDLKKGDIIQLQRRGFFICDQPYEPVSPYSCKEAPCVLIYIPDGHTKEMPTSGSKEKTKVEATKNETSAPFKERPTPSLNNNCTTSEDSLVLYNRVAVQGDVVRELKAKKAPKEDVDAAVKQLLSLKAEYKEKTGQEYKPGNPPAEIGQNISSNSSASILESKSLYDEVAAQGEVVRKLKAEKSPKAKINEAVECLLSLKAQYKEKTGKEYIPGQPPLSQSSDSSPTRNSEPAGLETPEAKVLFDKVASQGEVVRKLKTEKAPKDQVDIAVQELLQLKAQYKSLIGVEYKPVSATGAEDKDKKKKEKENKSEKQNKPQKQNDGQRKDPSKNQGGGLSSSGAGEGQGPKKQTRLGLEAKKEENLADWYSQVITKSEMIEYHDISGCYILRPWAYAIWEAIKDFFDAEIKKLGVENCYFPMFVSQSALEKEKTHVADFAPEVAWVTRSGKTELAEPIAIRPTSETVMYPAYAKWVQSHRDLPIKLNQWCNVVRWEFKHPQPFLRTREFLWQEGHSAFATMEEAAEEVLQILDLYAQVYEELLAIPVVKGRKTEKEKFAGGDYTTTIEAFISASGRAIQGGTSHHLGQNFSKMFEIVFEDPKIPGEKQFAYQNSWGLTTRTIGVMTMVHGDNMGLVLPPRVACVQVVIIPCGITNALSEEDKEALIAKCNDYRRRLLSVNIRVRADLRDNYSPGWKFNHWELKGVPIRLEVGPRDMKSCQFVAVRRDTGEKLTVAENEAETKLQAILEDIQVTLFTRASEDLKTHMVVANTMEDFQKILDSGKIVQIPFCGEIDCEDWIKKTTARDQDLEPGAPSMGAKSLCIPFKPLCELQPGAKCVCGKNPAKYYTLFGRSY
Turning to B2, the “protein expression level of Snail1, anti-Flag immunoblot (HEK293T)” value in series [1] is recorded as “the protein expression level of Snail1 increased more when overexpressed together with EPRS through co-transfection than when overexpressed alone”.

B3: Flag-tagged EPRS (human Flag-tagged EPRS expression vector, Origene) (protein)
chain: B2 chain
With B3, the “ubiquitination of Snail1 (streptavidin pull-down, anti-HA immunoblot)” value in series [2] is reported as “the ubiquitination was reduced in the EPRS overexpressed experimental group”.

B4: glutamyl-prolyl-tRNA synthetase (EPRS), endogenous protein of A549 or HEK293T cells (protein)
chain: B2 chain
As for B4, in series [3], the “EMT markers after EPRS knock-down (immunoblot, A549)” value is “at the time of EPRS knock-down, the Snail1 and p-SMAD3 was reduced and the E-cadherin was increased. This indicates that the EMT progress was suppressed”.

B5: Strep-tagged WHEP-PRS domain of EPRS (pEXPR-IBA105-PRS) (protein)
chain: VEATKNETSAPFKERPTPSLNNNCTTSEDSLVLYNRVAVQGDVVRELKAKKAPKEDVDAAVKQLLSLKAEYKEKTGQEYKPGNPPAEIGQNISSNSSASILESKSLYDEVAAQGEVVRKLKAEKSPKAKINEAVECLLSLKAQYKEKTGKEYIPGQPPLSQSSDSSPTRNSEPAGLETPEAKVLFDKVASQGEVVRKLKTEKAPKDQVDIAVQELLQLKAQYKSLIGVEYKPVSATGAEDKDKKKKEKENKSEKQNKPQKQNDGQRKDPSKNQGGGLSSSGAGEGQGPKKQTRLGLEAKKEENLADWYSQVITKSEMIEYHDISGCYILRPWAYAIWEAIKDFFDAEIKKLGVENCYFPMFVSQSALEKEKTHVADFAPEVAWVTRSGKTELAEPIAIRPTSETVMYPAYAKWVQSHRDLPIKLNQWCNVVRWEFKHPQPFLRTREFLWQEGHSAFATMEEAAEEVLQILDLYAQVYEELLAIPVVKGRKTEKEKFAGGDYTTTIEAFISASGRAIQGGTSHHLGQNFSKMFEIVFEDPKIPGEKQFAYQNSWGLTTRTIGVMTMVHGDNMGLVLPPRVACVQVVIIPCGITNALSEEDKEALIAKCNDYRRRLLSVNIRVRADLRDNYSPGWKFNHWELKGVPIRLEVGPRDMKSCQFVAVRRDTGEKLTVAENEAETKLQAILEDIQVTLFTRASEDLKTHMVVANTMEDFQKILDSGKIVQIPFCGEIDCEDWIKKTTARDQDLEPGAPSMGAKSLCIPFKPLCELQPGAKCVCGKNPAKYYTLFGRSY
On to B5, for which the “Snail1 stability, anti-Flag immunoblot (HEK293T)” value in series [1] is given as “the WHEP-PRS fragment rather than ERS-WHEP fragment in the EPRS more contributed to the Snail1 stability”.
